Biological target: T1, BSA coupled 37-mer Cad-11 peptide encompassing the Cad-11 immunogen (UniProt P55287 54-90, limits assumed, linked to BSA)
T1 construct: domain: 37-mer peptide encompassing the Cad-11 immunogen; also called Cad-11 antigen; Cad-11 peptide immunogen
T1 peptide (looked up): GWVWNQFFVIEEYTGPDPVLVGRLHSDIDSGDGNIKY
Test: ELISA, BSA-coupled 37-mer cadherin peptide coated at 500 ng/ml, antibody titrated, A450
Procedure: Reactibind plates (ThermoScientific) were coated with 500 ng/ml of the BSA coupled cadherin 37-mer peptide (NE peptide) corresponding to Cadherins-7, -8, -9, -11, -18, -20, and -24 in 0.05% Tween (EMD, product code 9480) in PBS (pH 7.2) (Gibco(Invitrogen), #20012) at 100 μl volume/well for overnight at 4° C. The peptide containing solution was removed from the well and the plate blocked with a 2% bovine serum albumin (BSA) in PBS, 200 μl volume/well, for 2 h at 22° C. The plate was then washed twice with 200 μl/well of PBS-Tween 0.05% at 22° C. and blotted dry. A dilution series from 5 μg/ml to 8 ng/ml in a volume of 100 μl/well of each the humanized anti-Cad-11 antibodies were incubated in the peptide coated wells and incubated at 22° C. for 1 hr. Antibody solution was removed from the wells and the plate washed twice with 200 μl/well of 0.05% Tween-PBS at 22° C. and blotted dry. The goat-anti mouse IgG (Pierce # 31432) was added to each well to plate at a 1:1000 dilution, 100 μl/well and incubate at 22° C. for 30 min. The secondary antibody solution was removed and the plate washed twice with 200 μl/well of 0.05% Tween-PBS at 22° C. and blotted dry. The reaction was developed by adding 100 μl/well tetramethylbenzidine (TMB) reagent IgG (Pierce # 34022, 1 step Turbo TMB-ELISA) to plate and developed at 22° C. for 5 min.

B1: humanized anti-Cad-11 EC1 antibody SDP051 (Vκ1/VH5) (antibody, IgG4, V domains shown)
VH: EVQLVQSGAEVKKPGASVKVSCKASGYSFTGYFMNWVRQAPGQGLEWIGRINPYTGDTFYNQKFKGRVTITVDKSTSTAYMELSSLRSEDTAVYYCGRLGSRYWYFDVWGQGTTVTVSS
VL: DVLMTQTPLSSPVTLGQPASISCRSSQSIIHSNGNTYLEWYLQKPGQSPQLLIYKVSNRFSGVPDRFTGSGSGTDFTLKISRVEAEDVGVYYCFQGSHVPWTFGQGTKLEIK
notes: humanized IgG4 (S241P), kappa
B1 was tested, and the “EC50 (read off the curve)” value was about 0.04 µg/mL.
